Results on seven molecules are retold here after patent publication US20140199714A1, “METHOD FOR DETECTING CANCER CELLS METASTASIZING INTO SENTINEL LYMPH NODE” (SHINSHU UNIVERSITY, priority 2008, published 2014).

What all share (type): cell-based
Experiment [1] concerns human LECs. As to the kind of experiment: Proliferative ability of human LECs with lymphangiogenic factors.
Experiment [2] has as its system ICAM-1 on human LECs. As to the kind of experiment: Immunohistochemical expression of ICAM-1 on cultured human LECs. The conditions noted are these: for staining with ICAM-1 on human LECs: 48 hrs. treatment with 100 ng/mL IL-6, 100 ng/mL VEGF-A, or 500 ng/mL VEGF-C; for expression of ICAM-1 on human LECs: 18 hrs.-stimulation with 10 ng/mL chemokine.
Experiment [3] deals with P-selectin on human LECs. As to the kind of experiment: Immunohistochemical expression of P-selectin on cultured human LECs. Conditions: 48 hrs. treatment with 100 ng/mL IL-6, 100 ng/mL VEGF-A, or 500 ng/mL VEGF-C. How it is done: (§1) Using an indirect immunohistochemical technique, the inventors examined the effects of the supernatants of culture medium of two kinds of carcinoma cells, MDA-MB-231 and MCF-7, on the expression of adhesion molecules such as E-selectin, P-selectin, vascular cell adhesion molecule (VCAM)-1, and intercellular adhesion molecule (ICAM)-1 on the human LECs. The carcinoma cells were plated in DMEM/F12 with 10% FBS, which was replaced the following day with DMEM/F12 with 3% FBS, and then collected after overnight culture. The collected solution was centrifuged at 2,000 rpm for 5 min. at 4° C. To examine the effects of the supernatants on the expression of the adhesion molecules on the human LECs, 1 mL of each collected solution was added to starvation culture medium, EBM-2 with 3% FBS of the human LECs, and then stimulated for 48 hrs. on the cells. In some experiments, the supernatant solutions at different concentrations (1/100 or 1/10,000 dilution) were constructed with appropriate volumes of DMEM/F12 with 3% FBS.
(§2) Indirect immunohistochemical studies were performed on the cultured LECs seeded or glass slides coated with type I collagen, and then the cells were fixed with 3.3% formalin in phosphate-buffered saline solution (PBS), for 20 min. at room temperature. The cells were washed three times with PBS, and then incubated overnight at 4° C. with primary polyclonal human antisera to E-selectin/CD62E (dilution 10 μg/mL, available from R&D Systems, US), P-selectin/CD62P (dilution 10 μg/mL, available from R&D Systems, US), VCAM-1/CD106 (dilution 10 μg/mL, available from R&D Systems, US), and ICAM-1/CD54 (dilution 10 μg/mL, available from R&D Systems, US).
Before primary staining, the cultured cells were permeabilized with 0.1% TRITON-X. After washing three times in PBS, the cells were incubated for 1 hr. at room temperature with 1:100 diluted ALEXA FLUOR 488 donkey anti-mouse IgG (available from Invitrogen, US). […]

The subject of experiment [4] is VCAM-1 on human LECs. As to the kind of experiment: Immunohistochemical expression of VCAM-1 on cultured human LECs. The conditions noted are these: for staining with VCAM-1 on human LECs: 48 hrs. treatment with 100 ng/mL IL-6, 100 ng/mL VEGF-A, or 500 ng/mL VEGF-C; for expression of VCAM-1 on human LECs: 18 hrs.-stimulation with 10 ng/mL chemokine. The protocol: as §1, §2
(§3) Before primary staining, the cultured cells were permeabilized with 0.1% TRITON-X. After washing three times in PBS, the cells were incubated for 1 hr. at room temperature with 1:100 diluted ALEXA FLUOR 488 donkey anti-mouse IgG (available from Invitrogen, US). The nuclei of cultured cells were counter-stained and mounted with PROLONG GOLD antifade reagent with 4′-6-diamidine-2-phenylindole (DAPI) (available from Molecular Probes, US), examined by a fluorescent microscope (Leica, Switzerland), and photographed.
(§4) Immunohistochemistry was performed on the cultured human LECs or the fresh-frozen SLNs isolated from the breast cancer patients. In brief, the cultured LECs were fixed with 10% formalin in the phosphate-buffered saline solution (PBS) at room temperature. The cells were incubated for 4 hrs. at room temperature with primary polyclonal human antisera platelet-endothelial cell adhesion molecule (PECAM)-1 (dilution 1:100, available from BD Biosciences, US), lymphatic vessel endothelial hyaluronan receptor (LYVE)-1 (dilution 1:50, available from RELIATech, Germany), PROX-1 (dilution 1:50, available from AngioBio, US), podoplanin (dilution 1:50, available from AngioBio, US), vascular endothelium growth factor receptor 3 (VEGF R3) (dilution 1:50, available from Santa Cruz, US), E-selectin/CD62E (dilution 1:50, available from R&D systems, US), P-selectin/CD62P (dilution 1:50, available from R&D systems, US), vascular cell adhesion molecule (VCAM)-1/CD106 (dilution 1:50, available from R&D systems, US), and intercellular adhesion molecule (ICAM)-1/CD54 (dilution 1:50, available from R&D systems, US). Before the staining, permeabilization of the cultured cells with 0.1% TRITON-X was performed. Then, the cells were stained using the following antibodies: ALEXA FLUOR 488 chicken anti-rabbit IgG or ALEXA FLUOR 488 donkey anti-mouse IgG (available from Invitrogen, US). The nuclei of the cultured cells were counter-stained and mounted with ProLong Gold antifade reagent with 4′-6-diamidine-2-phenylindole (DAPI) (available from Molecular Probes, US). The cultured cells were examined by a fluorescent microscope (available from Leica, Germany) and photographed. […]

Experiment [5] concerns E-selectin on human LECs. As to the kind of experiment: Immunohistochemical expression of E-selectin on cultured human LECs. The protocol: as §1, §2, §3, §4
[6] abbreviates: 48 hrs. treatment with 100 ng/mL IL-6, 100 ng/mL VEGF-A, or 500 ng/mL VEGF-C.
[7] abbreviates: 18 hrs.-stimulation with 10 ng/mL chemokine.

As for “basic-FGF: basic fibroblast growth factor, lymphangiogenic factor”, the “proliferative ability of the LECs” value in experiment [1] is recorded as “Sthenia of proliferative ability”.
On to IL-6: cytokine, for which the “staining with ICAM-1 on human LECs” value in experiment [2] is on record as “Slight staining”. The “staining by P-selectin antiserum on human LECs” value in experiment [3] is reported as “strongly stained”. The “staining with VCAM-1 on human LECs” value in experiment [4] is recorded as “Slight staining”. Further, in experiment [5] (setting [6]), the “expression of E-selectin on human LECs” value was “No or little expression”.
On to VEGF, for which the “proliferative ability of the LECs” value in experiment [1] is “Sthenia of proliferative ability”.

B1: CCL21: chemokine (protein, UniProt O00585 24-134, looked up)
C-C motif chemokine 21: SDGGAQDCCLKYSQRKIPAKVVRSYRKQEPSLGCSIPAILFLPRKRSQAELCADPKELWVQQLMQHLDKTPSPQKPAQGCRKDRGASKTGKKGKGSKGCKRTERSQTPKGP
Regarding B1, in experiment [2], the “expression of ICAM-1 on human LECs” value is “slight staining”. In experiment [4], the “expression of VCAM-1 on human LECs” value is recorded as “Little or no expression”. The “expression of E-selectin on human LECs” value in experiment [5] (setting [7]) is “Little or no expression”.

B2: CCL12: chemokine (protein, UniProt Q62401 23-104, looked up)
C-C motif chemokine 12: GPDAVSTPVTCCYNVVKQKIHVRKLKSYRRITSSQCPREAVIFRTILDKEICADPKEKWVKNSINHLDKTSQTFILEPSCLG
On to B2, for which the “expression of ICAM-1 on human LECs” value in experiment [2] is given as “slight staining”. The “expression of VCAM-1 on human LECs” value in experiment [4] is recorded as “Little or no expression”. In addition, the “expression of E-selectin on human LECs” value in experiment [5] (setting [7]) is “Little or no expression”.

B3: CCL1: chemokine (protein, UniProt P22362 24-96, looked up)
C-C motif chemokine 1: KSMQVPFSRCCFSFAEQEIPLRAILCYRNTSSICSNEGLIFKLKRGKEACALDTVGWVQRHRKMLRHCPSKRK
In the case of B3, the “expression of ICAM-1 on human LECs” value in experiment [2] is on record as “slight staining”. In experiment [4], the “expression of VCAM-1 on human LECs” value is given as “Little or no expression”. In addition, in experiment [5] (setting [7]), the “expression of E-selectin on human LECs” value is listed as “Little or no expression”.

B4: VEGF-C: growth factor; lymphangiogenic factor (protein, UniProt P49767 112-227, looked up)
Vascular endothelial growth …: AHYNTEILKSIDNEWRKTQCMPREVCIDVGKEFGVATNTFFKPPCVSVYRCGGCCNSEGLQCMNTSTSYLSKTLFEITVPLSQGPKPVTISFANHTSCRCMSKLDVYRQVHSIIRR
As to B4, the “staining with ICAM-1 on human LECs” value in experiment [2] was “Slight staining”. Moreover, the “staining by P-selectin antiserum on human LECs” value in experiment [3] was “strongly stained”. The “staining with VCAM-1 on human LECs” value in experiment [4] is “Slight staining”. For the same molecule, the “expression of E-selectin on human LECs” value in experiment [5] (setting [6]) is given as “No or little expression”. The “proliferative ability of the LECs” value in experiment [1] was “Sthenia of proliferative ability”.
